Source: patent US20250066477A1

Biological target: human γδ TCR (Vγ9Vδ2) on human γδ T cells (human)
Assay: cell-based or functional assay

Chain of human γδ TCR (Vγ9Vδ2) on human γδ T cells (human) (main, as listed by the source): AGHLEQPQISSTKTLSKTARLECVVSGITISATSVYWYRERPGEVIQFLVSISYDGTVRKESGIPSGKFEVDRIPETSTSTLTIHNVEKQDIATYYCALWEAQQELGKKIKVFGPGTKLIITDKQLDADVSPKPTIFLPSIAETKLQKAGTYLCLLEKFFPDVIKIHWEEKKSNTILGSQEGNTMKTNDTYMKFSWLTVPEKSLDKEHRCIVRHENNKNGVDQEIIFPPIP

B1: 1D7v158×5T4 bispecific γδTCR×5T4 molecule (bispecific antibody, part only; not given: anti-5T4 VHH, Fc halves, not shown: a dimerising Fc or GST)
chain, part: EVQLLESGGGEVQPGGSLRLSCVASRGKISQYRMGWYRQAPGKQRELVAHISNTGDAAEYVAPVKGRFTISRDNAKNALYLQMNSLRAEDTAVYKCNTVEDILAWGQGTLVTVEP
- potency (EC50) of γδ T cell-mediated caspase-3/7 activation / cytotoxicity on A375 cells, against the molecule comprising 1D7v9: 2 fold
